According to the RNAGym collection of RNA variant scans (doi:10.1093/molbev/msab373):

B1: Azoarcus group I ribozyme (parent)
chain: GUGCCUUGCGCCGGGAAACCACGCAAGGGAUGGUGUCAAAUUCGGCGAAACCUAAGCGCCCGCCCGGGCGUAUGGCAACGCCGAGCCAAGCUUCGGCGCCUGCGCCGAUGAAGGUGUAGAGACUAGACGGCACCCACCUAAGGCAAACGCUAUGGUGAAGGCAUAGUCCAGGGAGUGGCGAAAGUCACACAAACCGG

Variants of: B1
Assay: reverse-splicing fitness (ratio to wild type); higher = more active; in vitro selection; Mg2+ level not given
Outline: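 An in vitro group I ribozyme library with randomized positions was T7-transcribed and gel-purified. In triplicate, 10 pmol RNA in EPPS pH 7.5 was reacted with 50 pmoles of a 30-nt RNA substrate for 1 h at 37 °C across several added MgCl2 levels (1–48 mM), then stopped with EDTA. Products were reverse transcribed from a substrate-complementary primer, PCR-amplified and sequenced (HiSeq 4000). Fitness is a variant's read proportion after selection over that before, normalised to wild type.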

Variant | reverse-splicing fitness
GUGCCUUGCGCCGGGAAACCACGCAAGGGAUGGUGUCAAAUUCGGCGAAACCUAAGCGCCCGCCCGGGCGUAUGGCAACGCGGAGCCAAGCUUCGGCGCCUGCGCCGAUGAAGGUGUAGUGACUAGACGGCACCCACCUAAGGCCAACGAUAUGGUGAAGGCAUAGUCUAGGGAGAGGCGAAAGUCACACAAACCGG [C82G A120U A145C C150A C169U U176A] | 0.0023
GUGCCUUGCGCCGGGAAACCACGCAAGGGAUGGUGUCAAAUUCGGCGAAACCUAAGCGCCCGCCCGGGCGUAUGGCAACGCGGAGCCAAGCUUCGGCGCCUGCGCCGAUGAAGGUGUAGUGACUAGACGGCACCCACCUAAGGCCAACGAUAUGGUGAAGGCAUAGUCUAGGGAGCGGCGAAAGUCACACAAACCGG [C82G A120U A145C C150A C169U U176C] | 0.00224
GUGCCUUGCGCCGGGAAACCACGCAAGGGAUGGUGUCAAAUUCGGCGAAACCUAAGCGCCCGCCCGGGCGUAUGGCAACGCGGAGCCAAGCUUCGGCGCCUGCGCCGAUGAAGGUGUAGUGACUAGACGGCACCCACCUAAGGCCAACGAUAUGGUGAAGGCAUAGUCUAGGGAGGGGCGAAAGUCACACAAACCGG [C82G A120U A145C C150A C169U U176G] | 0.00162
GUGCCUUGCGCCGGGAAACCACGCAAGGGAUGGUGUCAAAUUCGGCGAAACCUAAGCGCCCGCCCGGGCGUAUGGCAACGCGGAGCCAAGCUUCGGCGCCUGCGCCGAUGAAGGUGUAGUGACUAGACGGCACCCACCUAAGGCCAACGAUAUGGUGAAGGCAUAGUCCAGGGAGAGGCGAAAGUCACACAAACCGG [C82G A120U A145C C150A U176A] | 0.00467
GUGCCUUGCGCCGGGAAACCACGCAAGGGAUGGUGUCAAAUUCGGCGAAACCUAAGCGCCCGCCCGGGCGUAUGGCAACGCGGAGCCAAGCUUCGGCGCCUGCGCCGAUGAAGGUGUAGUGACUAGACGGCACCCACCUAAGGCCAACGAUAUGGUGAAGGCAUAGUCCAGGGAGCGGCGAAAGUCACACAAACCGG [C82G A120U A145C C150A U176C] | 0.00532
GUGCCUUGCGCCGGGAAACCACGCAAGGGAUGGUGUCAAAUUCGGCGAAACCUAAGCGCCCGCCCGGGCGUAUGGCAACGCGGAGCCAAGCUUCGGCGCCUGCGCCGAUGAAGGUGUAGUGACUAGACGGCACCCACCUAAGGCCAACGAUAUGGUGAAGGCAUAGUCCAGGGAGGGGCGAAAGUCACACAAACCGG [C82G A120U A145C C150A U176G] | 0.00299
GUGCCUUGCGCCGGGAAACCACGCAAGGGAUGGUGUCAAAUUCGGCGAAACCUAAGCGCCCGCCCGGGCGUAUGGCAACGCGGAGCCAAGCUUCGGCGCCUGCGCCGAUGAAGGUGUAGUGACUAGACGGCACCCACCUAAGGCCAACGGUAUGGUGAAGGCAUAGUCCAGGGAGUGGCGAAAGUCACACAAACCGG [C82G A120U A145C C150G] | 0.0203
GUGCCUUGCGCCGGGAAACCACGCAAGGGAUGGUGUCAAAUUCGGCGAAACCUAAGCGCCCGCCCGGGCGUAUGGCAACGCGGAGCCAAGCUUCGGCGCCUGCGCCGAUGAAGGUGUAGUGACUAGACGGCACCCACCUAAGGCCAACGGUAUGGUGAAGGCAUAGUCAAGGGAGUGGCGAAAGUCACACAAACCGG [C82G A120U A145C C150G C169A] | 0.00195
GUGCCUUGCGCCGGGAAACCACGCAAGGGAUGGUGUCAAAUUCGGCGAAACCUAAGCGCCCGCCCGGGCGUAUGGCAACGCGGAGCCAAGCUUCGGCGCCUGCGCCGAUGAAGGUGUAGUGACUAGACGGCACCCACCUAAGGCCAACGGUAUGGUGAAGGCAUAGUCAAGGGAGAGGCGAAAGUCACACAAACCGG [C82G A120U A145C C150G C169A U176A] | 0.00219
GUGCCUUGCGCCGGGAAACCACGCAAGGGAUGGUGUCAAAUUCGGCGAAACCUAAGCGCCCGCCCGGGCGUAUGGCAACGCGGAGCCAAGCUUCGGCGCCUGCGCCGAUGAAGGUGUAGUGACUAGACGGCACCCACCUAAGGCCAACGGUAUGGUGAAGGCAUAGUCAAGGGAGCGGCGAAAGUCACACAAACCGG [C82G A120U A145C C150G C169A U176C] | 0.00176
GUGCCUUGCGCCGGGAAACCACGCAAGGGAUGGUGUCAAAUUCGGCGAAACCUAAGCGCCCGCCCGGGCGUAUGGCAACGCGGAGCCAAGCUUCGGCGCCUGCGCCGAUGAAGGUGUAGUGACUAGACGGCACCCACCUAAGGCCAACGGUAUGGUGAAGGCAUAGUCAAGGGAGGGGCGAAAGUCACACAAACCGG [C82G A120U A145C C150G C169A U176G] | 0.00165
GUGCCUUGCGCCGGGAAACCACGCAAGGGAUGGUGUCAAAUUCGGCGAAACCUAAGCGCCCGCCCGGGCGUAUGGCAACGCGGAGCCAAGCUUCGGCGCCUGCGCCGAUGAAGGUGUAGUGACUAGACGGCACCCACCUAAGGCCAACGGUAUGGUGAAGGCAUAGUCGAGGGAGUGGCGAAAGUCACACAAACCGG [C82G A120U A145C C150G C169G] | 0.00253
GUGCCUUGCGCCGGGAAACCACGCAAGGGAUGGUGUCAAAUUCGGCGAAACCUAAGCGCCCGCCCGGGCGUAUGGCAACGCGGAGCCAAGCUUCGGCGCCUGCGCCGAUGAAGGUGUAGUGACUAGACGGCACCCACCUAAGGCCAACGGUAUGGUGAAGGCAUAGUCGAGGGAGAGGCGAAAGUCACACAAACCGG [C82G A120U A145C C150G C169G U176A] | 0.00247
GUGCCUUGCGCCGGGAAACCACGCAAGGGAUGGUGUCAAAUUCGGCGAAACCUAAGCGCCCGCCCGGGCGUAUGGCAACGCGGAGCCAAGCUUCGGCGCCUGCGCCGAUGAAGGUGUAGUGACUAGACGGCACCCACCUAAGGCCAACGGUAUGGUGAAGGCAUAGUCGAGGGAGCGGCGAAAGUCACACAAACCGG [C82G A120U A145C C150G C169G U176C] | 0.00209
GUGCCUUGCGCCGGGAAACCACGCAAGGGAUGGUGUCAAAUUCGGCGAAACCUAAGCGCCCGCCCGGGCGUAUGGCAACGCGGAGCCAAGCUUCGGCGCCUGCGCCGAUGAAGGUGUAGUGACUAGACGGCACCCACCUAAGGCCAACGGUAUGGUGAAGGCAUAGUCGAGGGAGGGGCGAAAGUCACACAAACCGG [C82G A120U A145C C150G C169G U176G] | 0.00178
